The source of these data is patent US12552876.

For the test, the target named is HSA-Fuc-GM1 conjugate (human). The experiment in a line: SPR (Biacore X), HSA-Fuc-GM1 conjugate amine-coupled to CM5 chip, antibody as analyte, bivalent analyte model.
Chain of HSA-Fuc-GM1 conjugate (human) (P02768 25-609): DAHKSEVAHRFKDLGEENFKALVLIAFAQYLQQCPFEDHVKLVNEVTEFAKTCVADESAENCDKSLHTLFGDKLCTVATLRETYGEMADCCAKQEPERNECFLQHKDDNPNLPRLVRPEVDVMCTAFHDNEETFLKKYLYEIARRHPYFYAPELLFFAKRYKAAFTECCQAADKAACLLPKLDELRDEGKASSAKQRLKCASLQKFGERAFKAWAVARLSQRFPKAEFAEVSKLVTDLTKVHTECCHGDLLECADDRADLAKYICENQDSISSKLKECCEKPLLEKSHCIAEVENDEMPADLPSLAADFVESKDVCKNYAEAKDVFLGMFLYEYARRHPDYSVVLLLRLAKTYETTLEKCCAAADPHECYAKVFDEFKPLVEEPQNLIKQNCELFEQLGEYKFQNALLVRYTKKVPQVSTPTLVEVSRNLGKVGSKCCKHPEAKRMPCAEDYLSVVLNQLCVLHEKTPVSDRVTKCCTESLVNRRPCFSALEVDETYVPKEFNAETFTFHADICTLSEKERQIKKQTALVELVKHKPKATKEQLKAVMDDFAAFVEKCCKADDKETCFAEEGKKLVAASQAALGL

B1: mAb FL134.33 (antibody, V domains shown)
VH: AVQLQESGPDLVKPSQSLSLTCTVTGYSITSGYSWHWIRQFPGNKLEWVGYIHYRGNTNYNPSLKSRVSITRDTYKNQFFLQLNSLTTEDTATYYCAQEPVRNYAMDFWGQGTSVTVSS
VL: DIVMTQSPDTLSVTPGDRVSLSCRASQSISDDLHWYQQKSHESPRLLIKYVSQSISGIPSRFSGSGSRSDFTLTINSVEPEDVGLYYCQNGHGFPPTFGGGTKLEIK
In the case of B1, the Kd is 58 µM, the koff amounted to 0.117 s⁻¹ and the kon turned out to be 2010 M⁻¹ s⁻¹.
